# Experimental data: article PMC6535915 (ASN NEURO, 2019)
# T1: connexin 36 (rat (endogenous in supraoptic nucleus), UniProt O70610 1-321)
# T1 sequence (looked up): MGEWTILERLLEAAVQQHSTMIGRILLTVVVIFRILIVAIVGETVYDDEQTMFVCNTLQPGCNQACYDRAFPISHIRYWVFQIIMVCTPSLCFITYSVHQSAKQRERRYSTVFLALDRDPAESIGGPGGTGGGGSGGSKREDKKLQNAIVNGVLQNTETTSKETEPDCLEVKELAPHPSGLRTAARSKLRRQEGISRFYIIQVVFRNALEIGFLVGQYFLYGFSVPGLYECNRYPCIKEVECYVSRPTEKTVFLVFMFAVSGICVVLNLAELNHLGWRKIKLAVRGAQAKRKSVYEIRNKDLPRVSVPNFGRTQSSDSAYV
# B1: oxytocin-neurophysin (natural protein, rat (endogenous in supraoptic nucleus), UniProt P01179 20-125, looked up)
# chain: CYIQNCPLGGKRAALDLDMRKCLPCGPGGKGRCFGPSICCADELGCFVGTAEALRCQEENYLPSPCQSGQKPCGSGGRCATAGICCSPDGCRTDPACDPESAFSER
# Biological target: T1, connexin 36
# Experiment: co-IP
binder,measurement,value
B1,fold co-precipitated OT-NP in lactating rats relative to virgin rats,1.61 fold
